Laboratory results from patent US20230381328A1, “COMPOUND FOR THE PREVENTION OR TREATMENT OF MYASTHENIA GRAVIS” (ABLEVIA BIOTECH GMBH, priority 2020, published 2023).

Biological target: monoclonal antibody mAB 198
Experiment: peptide microarray, fluorescence, linear peptide

Binder	relative signal [%]
IDVRLRFNP	15
NPADYGI [NPADYGI, linear mimotope]	8
NPADYGY [NPADYGY, linear mimotope]	21.2
RINPADY [RINPADY, linear mimotope]	12.2
RLYWNPADY	11
LRWNPADYH	15.3
NPDDYHG [NPDDYHG, linear mimotope]	21.3
LRGNPAD [LRGNPAD, linear mimotope]	48
YNLPWNP [YNL PWNP, linear mimotope]	7.6
WNPDDYR [WNPDDYR, linear mimotope]	11.4
SLHWNPADY	13.6
NPADYGR [NPADYGR, linear mimotope]	12.2
LRWNPADYGGF	10.6
WNPDDYGHV	8.8
NPADYHG [NPADYHG, linear mimotope]	59.3
RLRGNPADY	6.9
GGGSLRYNP	7.1
WNPADYR [WNPADYR, linear mimotope]	40.6
RWNPADF [RWNPADF, linear mimotope]	12.6
NPADYPG [NPADYPG, linear mimotope]	19.8
SLRINPADY	11
LRLNPADYG	17.3
VRLRWNPADYP	56.7
WNPADYH [WNPADYH, linear mimotope]	9.4

Binder	relative signal [%]
NPADYDG [NPADYDG, linear mimotope]	10.3
LRYNPAD [LRYNPAD, linear mimotope]	15.9
NPADYRG [NPADYRG, linear mimotope]	71.4
YNLKFNP [YNLKFNP, linear mimotope]	13.7
LHWNPAD [LHWNPAD, linear mimotope]	15.7
YNLKYNP [YNLKYNP, linear mimotope]	8.3
RLNPADY [RLNPADY, linear mimotope]	17.7
RHNPADY [RHNPADY, linear mimotope]	8.9
LRINPAD [LRINPAD, linear mimotope]	9.2
RFNPADY [RFNPADY, linear mimotope]	21.8
HWNPADY [HWNPADY, linear mimotope]	7.4
NPADYGH [NPADYGH, linear mimotope]	18.1
NPADYGD [NPADYGD, linear mimotope]	14.1
RRNPADY [RRNPADY, linear mimotope]	9.9
GSLRYNP [GSLRYNP, linear mimotope]	34.4
LRFNPAD [LRFNPAD, linear mimotope]	37.1
RTNPADY [RTNPADY, linear mimotope]	7.2
WNPADYP [WNPADYP, linear mimotope]	20.5
NPDDYGH [NPDDYGH, linear mimotope]	7.7
RPNPADY [RPNPADY, linear mimotope]	9.5
RYNPADY [RYNPADY, linear mimotope]	16.5
CNLKFNP [CNLKFNP, linear mimotope]	11
GSLRFNP [GSLRFNP, linear mimotope]	21.6

Second part, the binder after the results:

relative signal [%]	Binder
8.6	RPNPADYGG
10.6	GGGSLRRNPAD
10.6	SLRWNPADYHG
9.5	GSLRRNPAD
13.7	WNPADYGHI
8.5	DVRLRINPADY
7.9	IDVRLRFNPAD
12.2	IDVRLRYNP
7.6	VDYNLKFNP
8.9	GNPADYGGI
9	WRLRWNPAD
25	VRLRRNPAD
8.1	VRHRWNPAD
10.9	QWVDYNLKFNP
7.2	LRWNPADYHGI
16.7	LLGGGSLRFNP
7.6	VPLRWNPAD
10	DVRLRFNPADY
13	GGGSLRFNP
9.4	RWNPADYGH
20.1	QWIDVRLRFNP
8.1	GGGSLRFNPAD
20.2	RLHWNPADY
9.3	GSLRFNPAD
14.9	RLRVNPADY
13.4	QWIDVRLRYNP
12.4	RLRWNPADYHG
11.4	RLRFNPADY
12.6	LRINPADYG
13	RGNPADYGG
